B1: MBP-tagged PupR CCSSD (PupR residues 110–324) (domain or fragment, Pseudomonas capeferrum, UniProt Q52209 110-324, looked up)
chain: QDWRADYHSRIGEQRRLTLADGTQVQLNTDSALNVAFDQQARRLRLVRGEMLITRPALADSRPLWVDTEHGRLESTLAQFNVRLHGQHTQATVYQGSVALQPALHAYPPILLGAGEQASFNQQGLLARQAVAAVAPAWSQGMLVAQGQPLAAFIEDLARYRRGHLACDPALAGLRVSGTFPLENTDKIIAAVAETLQLEVQHFTRYWVTLKPRMA
notes: PupR, inner membrane sigma regulator of Pseudomonas capeferrum (formerly Pseudomonas putida WCS358), periplasmic CCSSD, residues 110-324; also called complete CCSSD; C-terminal cell-surface signaling domain; source: E. coli BL21(DE3)pLysS, co-expressed with GST-PupB NTSD, clarified lysate (pull-down); not shown: MBP, N-terminal, kept
B2: PupB NTSD (purified) (domain or fragment, Pseudomonas capeferrum, UniProt P38047 49-128, looked up)
chain: AQADFDIPAGPLAPALAHFGQSAHILLSYPTALTEGRSTSGLAGRFDIDQGLAILLAGTGLEASRGANASYSLQASASTG
notes: PupB, outer membrane TonB-dependent transducer of Pseudomonas capeferrum (formerly Pseudomonas putida WCS358), N-terminal signaling domain; also called N-terminal signaling domain of PupB
B3: PupR CCSSD (PupR residues 110–324, MBP cleaved) (domain or fragment, Pseudomonas capeferrum)
chain: GAMGQDWRADYHSRIGEQRRLTLADGTQVQLNTDSALNVAFDQQARRLRLVRGEMLITRPALADSRPLWVDTEHGRLESTLAQFNVRLHGQHTQATVYQGSVALQPALHAYPPILLGAGEQASFNQQGLLARQAVAAVAPAWSQGMLVAQGQPLAAFIEDLARYRRGHLACDPALAGLRVSGTFPLENTDKIIAAVAETLQLEVQHFTRYWVTLKPRMA
notes: 4-residue cloning artifact left after TEV cleavage; PupR, inner membrane sigma regulator of Pseudomonas capeferrum (formerly Pseudomonas putida WCS358), periplasmic CCSSD, residues 110-324; 219-residue product with the GAMG artifact; About 90% pure, some MBP contamination; also called native PupR CCSSD; not shown: MBP, N-terminal, cleaved

Legend:
Conditions in all cases: both partners purified
[1] = target: B2; assay: ITC; MBP-tagged PupR CCSSD (220-235 μM) titrated into PupB NTSD (27.5-40 μM); 15 °C; 25 mM HEPES pH 7.5, 400 mM LiCl, 10% glycerol; global fit of three runs in SEDPHAT with a local incompetent fraction
[2] = target: B2; assay: as above; remark: listed apart in the source
[3] = target: B1; assay: as above
[4] = target: B2; assay: SEC-SAXS; inline Superdex 200 Increase 10/300; 25 mM HEPES pH 7.5, 400 mM LiCl, 10% glycerol; 800 μM complex (1:1 mix, 30 min at room temperature) or 400 μM PupR CCSSD alone injected; ambient temperature

Binder: B1
stoichiometry N [1]: 1
dH [2]: -17.7 kcal/mol

Binder: B2
Kd [3]: 690 nM

Binder: B3
stoichiometry N [4]: 1

Source: PMC7186176, “Structural basis of cell-surface signaling by a conserved sigma regulator in Gram-negative bacteria” (The Journal of Biological Chemistry, 2020)
